# From patent US20240199740A1 (Ablynx, published 2024)
# T1: soluble recombinant cynomolgus TCR α/β-zipper protein (cynomolgus/rhesus monkey)
# T1 construct: Made in house in CHOK1SV cells; also called recombinant cynomolgus soluble TCRα/β-zipper protein; cynomolgus/rhesus monkey TCR α/β; not shown: the zipper protein (O'Shea et al. 1993) fused C-terminally to each chain, and any linker to it
# T1 alpha: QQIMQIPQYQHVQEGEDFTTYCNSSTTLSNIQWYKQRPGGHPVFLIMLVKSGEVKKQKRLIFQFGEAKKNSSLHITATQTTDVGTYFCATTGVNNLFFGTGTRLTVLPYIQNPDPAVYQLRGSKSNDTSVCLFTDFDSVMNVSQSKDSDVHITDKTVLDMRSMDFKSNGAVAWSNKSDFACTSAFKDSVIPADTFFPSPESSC
# T1 beta: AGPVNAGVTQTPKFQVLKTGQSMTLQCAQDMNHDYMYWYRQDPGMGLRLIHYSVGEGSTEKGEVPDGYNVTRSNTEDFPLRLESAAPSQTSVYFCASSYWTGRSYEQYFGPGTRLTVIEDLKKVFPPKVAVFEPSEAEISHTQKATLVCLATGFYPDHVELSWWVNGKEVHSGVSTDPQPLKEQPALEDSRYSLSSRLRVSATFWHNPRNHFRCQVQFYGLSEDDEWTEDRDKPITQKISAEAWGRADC
# T2: cynomolgus CD123 expressed on HEK Flp-In cells (cynomolgus)
# T2 chain: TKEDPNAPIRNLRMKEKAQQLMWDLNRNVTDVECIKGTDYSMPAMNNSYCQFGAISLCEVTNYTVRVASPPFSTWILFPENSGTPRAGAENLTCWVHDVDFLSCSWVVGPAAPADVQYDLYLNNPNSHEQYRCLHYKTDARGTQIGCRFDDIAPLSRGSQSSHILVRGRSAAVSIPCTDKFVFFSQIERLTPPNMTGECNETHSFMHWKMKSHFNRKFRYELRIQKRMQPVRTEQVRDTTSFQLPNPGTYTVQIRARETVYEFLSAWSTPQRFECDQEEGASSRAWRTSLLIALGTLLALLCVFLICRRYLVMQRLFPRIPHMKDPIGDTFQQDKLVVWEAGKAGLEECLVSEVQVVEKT
# B1: T0170055A02 (VHH)
# VHH: EVQLVESGGGLVQPGGSLRLSCAASGDVHKINILGWYRQAPAKEREMVAHITIGDATDYADSAKGRFTISRDEAKNMVYLQMNSLKPEDTAVYFCRAYSRIYPYNYWGQGTLVTVSS
# notes: also called T0170PMP055A02; T01700055A02; not shown: C-terminal triple Flag, His6 tag
# B2: T0170056G05 (VHH)
# VHH: EVQLVESGGGLVQPGGSLRLSCVASGDVHKINFLGWYRQAPGKEREKVAHISIGDQTDYADSAKGRFTISRDESKNMVYLQMNSLKPEDTAVYFCRAFSRIYPYDYWGQGTLVTVSS
# notes: Monovalent anti-TCR Nanobody; also called T0170PMP056G05; T01700056G05; not shown: C-terminal triple Flag, His6 tag
# B3: T017000139 (bispecific antibody)
# chain: DVQLVESGGGLVQPGGSLRLSCVASGDVHKINFLGWYRQAPGKEREKVAHISIGDQTDYADSAKGRFTISRDESKNMVYLQMNSLKPEDTAVYFCRAFSRIYPYDYWGQGTLVTVSSGGGGSGGGGSGGGGSGGGGSGGGGSGGGGSGGGGSEVQLVESGGGLVQAGGPLRLSCAASGRTFSSYVMGWFRQAPGKEREFVAAIYWSNGKTQYTDSVKGRFTISGDNAKNTVYLQMNSLNPEDTAVYYCVADKDETGFRTLPIAYDYWGQGTLVTVSSGGGGSGGGGSGGGGSGGGGSGGGGSGGGGSGGGGSEVQLVESGGGLVQAGGSLRLSCAASGITSKINDMGWYRQTPGNYREWVASITATGTTNYRDSVKGRFTISRDNAKSTVYLQMNSLKPEDTTVYYCNTFPPISNFWGQGTLVTVSSA
# B4: T017000139 (bispecific antibody)
# chain: DVQLVESGGGLVQPGGSLRLSCVASGDVHKINFLGWYRQAPGKEREKVAHISIGDQTDYADSAKGRFTISRDESKNMVYLQMNSLKPEDTAVYFCRAFSRIYPYDYWGQGTLVTVSSGGGGSGGGGSGGGGSGGGGSGGGGSGGGGSGGGGSEVQLVESGGGLVQAGGPLRLSCAASGRTFSSYVMGWFRQAPGKEREFVAAIYWSNGKTQYTDSVKGRFTISGDNAKNTVYLQMNSLNPEDTAVYYCVADKDETGFRTLPIAYDYWGQGTLVTVSSGGGGSGGGGSGGGGSGGGGSGGGGSGGGGSGGGGSEVQLVESGGGLVQAGGSLRLSCAASGITSKINDMGWYRQTPGNYREWVASITATGTTNYRDSVKGRFTISRDNAKSTVYLQMNSLKPEDTTVYYCNTFPPISNFWGQGTLVTVSSA
# notes: Multispecific Nanobody polypeptide expressed in Pichia; also called T013700139
# Experiments:
# [1] = target: T3, human TCR/CD3 on purified primary human T cells (human, UniProt P01848 1-140; P01850 1-176); assay: flow cytometry, purified primary human T cells
# T3 construct: whole, on cells; Native TCR alpha/beta with the CD3 chains on T cells isolated from buffy coat blood; also called purified primary T cells
# Procedure: Dose-dependent binding of the purified monovalent anti-TCR Nanobodies to human TCRα/β (2XN9)/CD3 expressed on CHO-K1 cells and to purified primary human T cells was evaluated by flow cytometry. In brief, cells were harvested and transferred to a V-bottom 96-well plate (1×10⁵ cells/well) and serial dilutions of Nanobodies (starting from 1 pM) were allowed to associate for 30 minutes at 4° C. in FACS buffer. […] After incubation, cells were washed 3 times with FACS Buffer. Subsequently, cells were resuspended in FACS buffer supplemented with 5 nM TOPRO3 (Molecular Probes, T3605) to distinguish live from dead cells, which are removed during the gating procedure. Cells were analysed using a FACS Array flow cytometer (BD Biosciences) and Flowing Software. First a P1 population which represented more than 80% of the total cell population was selected based on FSC-SSC distribution. In this gate, 10000 cells were counted during acquisition. From this population the TOPRO+ cells (dead cells) were excluded and the median PE value was calculated.
# [2] = target: T4, human CD3 expressed on HEK293H cells (human, UniProt P04234 22-171; P09693 23-182; P07766 23-207; P20963 22-164); assay: flow cytometry, HEK293H human CD3 cells
# T4 construct: also called HEK293H CD3; HEK293H human CD3
# Text: The parental HEK293H cell line was included as TCR/CD3 negative cell line.
# [3] = target: T1, soluble recombinant cynomolgus TCR …; assay: ELISA, directly coated soluble cynomolgus TCR-zipper protein
# Procedure: Quality of the TCR α/β zipper proteins was assessed in an ELISA binding assay. […] After an overnight incubation, plates were washed and blocked with PBS+1% casein for 1 h at room temperature. […] The reaction was stopped with 2M H₂SO₄ and the dose dependent binding was determined by measuring the OD at 450 nm using the Tecan sunrise 4 (FIG. 2).
# [4] = target: T1, soluble recombinant cynomolgus TCR …; assay: BLI (Octet RED384), cynomolgus TCR-zipper protein immobilized
# Procedure: Binding affinities were measured using Bio-Layer Interferometry (BLI) on an Octet RED384 instrument (Pall ForteBio Corp.). […] For kinetic analysis, sensors were first dipped into running buffer (10 mM Hepes, 150 mM NaCl, 0.05% p20, pH7.4 from GE Healthcare Life Sciences) to determine baseline setting. […] Affinity constants (KD) were calculated applying a 1:1 interaction model using the ForteBio Data Analysis software.
# human CD123 [5] = target: T5, human CD123 (human, UniProt P26951 19-378); assay: cell-based or functional assay
# human CD123 [6] = target: T5, human CD123; assay: cell-based or functional assay; remark: listed apart in the source
# human CD123 [7] = target: T5, human CD123; assay: cell-based or functional assay; remark: listed apart in the source
# human CD123 [8] = target: T5, human CD123; assay: cell-based or functional assay; remark: listed apart in the source
# [9] = target: T6, human CD123 expressed on cells (human, UniProt P26951 19-378); assay: cell-based or functional assay
# [10] = target: T6, human CD123 expressed on cells; assay: cell-based or functional assay; remark: listed apart in the source
# [11] = target: cynomolgus TCR/CD3 expressed on cells (cynomolgus); assay: cell-based or functional assay
# [12] = target: cynomolgus TCR/CD3 expressed on cells (cynomolgus); assay: cell-based or functional assay; remark: listed apart in the source
# [13] = target: cynomolgus TCR/CD3 expressed on cells (cynomolgus); assay: cell-based or functional assay; remark: listed apart in the source
# [14] = target: T6, human CD123 expressed on cells; assay: cell-based or functional assay; remark: listed apart in the source
# [15] = target: T2, cynomolgus CD123 expressed on HEK …; assay: cell-based or functional assay
# [16] = target: T6, human CD123 expressed on cells; assay: cell-based or functional assay; remark: listed apart in the source
# [17] = target: T6, human CD123 expressed on cells; assay: cell-based or functional assay; remark: listed apart in the source
# [18] = target: T6, human CD123 expressed on cells; assay: cell-based or functional assay; remark: listed apart in the source
# [19] = target: T6, human CD123 expressed on cells; assay: cell-based or functional assay; remark: listed apart in the source
# [20] = target: T6, human CD123 expressed on cells; assay: cell-based or functional assay; remark: listed apart in the source
# [21] = target: T6, human CD123 expressed on cells; assay: cell-based or functional assay; remark: listed apart in the source
# [22] = target: T7, cynomolgus TCR/CD3 expressed on cells (cynomolgus); assay: flow cytometry competition, HSC-F cells, competitor T017000099 (500 nM)
# T7 construct: whole, on cells; Native complex with CD3 chains; the cell type is named under assay or readout; also called cyno TCR/CD3; CD3/TCR expressed on HSC-F
# Procedure: Cells were washed and incubated with Propidium Iodine to stain for dead cells, which are then removed during the gating procedure. The cells were then analysed via a BD FACSArray. First a P1 population which represented more than 80% of the total cell population was selected based on FSC-SSC distribution. In this gate, 10000 cells were counted during acquisition. From this population the PI+ cells (dead cells) were excluded and the median APC value was calculated.
# [23] = target: T6, human CD123 expressed on cells; assay: flow cytometry competition, MOLM-13 cells, competitor A0110056A10-Alexa647 (0.4 nM)
# Procedure: (§1) Next to binding to the MOLM-13 and CHO Flp-In huCD123 cells, binding to cyno CD123 transfected HEK Flp-In cells was assessed.
# [24] = target: T6, human CD123 expressed on cells; assay: flow cytometry competition, CHO Flp-In huCD123 cells, competitor A0110056A10-Alexa647 (0.9 nM)
# Procedure: as §1
# [25] = target: T2, cynomolgus CD123 expressed on HEK …; assay: flow cytometry competition, HEK Flp-In cyCD123 cells, competitor A0110056A10-Alexa647 (0.9 nM)
# Procedure: as §1
# T6 sequence (P26951 19-378 limits assumed): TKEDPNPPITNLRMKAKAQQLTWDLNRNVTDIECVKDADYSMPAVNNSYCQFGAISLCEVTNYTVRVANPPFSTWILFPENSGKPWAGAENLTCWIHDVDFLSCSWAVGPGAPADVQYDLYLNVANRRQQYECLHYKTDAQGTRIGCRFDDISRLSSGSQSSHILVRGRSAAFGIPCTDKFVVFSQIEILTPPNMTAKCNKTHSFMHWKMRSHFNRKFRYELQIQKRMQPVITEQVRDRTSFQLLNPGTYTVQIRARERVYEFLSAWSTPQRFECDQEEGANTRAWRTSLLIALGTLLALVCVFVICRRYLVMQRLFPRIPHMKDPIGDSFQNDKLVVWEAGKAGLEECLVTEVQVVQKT
# T5 sequence (P26951 19-378 limits assumed): as above
# T3 sequence (P01848 whole entry, chain 1 of 2): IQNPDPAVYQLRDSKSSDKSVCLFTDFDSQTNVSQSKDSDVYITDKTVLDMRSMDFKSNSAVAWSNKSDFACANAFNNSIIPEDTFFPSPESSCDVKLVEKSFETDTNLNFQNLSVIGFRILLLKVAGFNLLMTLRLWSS
# T3 sequence (P01850 whole entry, chain 2 of 2): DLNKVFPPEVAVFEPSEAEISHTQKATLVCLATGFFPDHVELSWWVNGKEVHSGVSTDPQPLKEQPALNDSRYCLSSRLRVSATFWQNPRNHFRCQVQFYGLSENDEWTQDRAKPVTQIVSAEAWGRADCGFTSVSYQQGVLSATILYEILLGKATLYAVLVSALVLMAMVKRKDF
# T4 sequence (P04234 22-171 limits assumed, chain 1 of 4): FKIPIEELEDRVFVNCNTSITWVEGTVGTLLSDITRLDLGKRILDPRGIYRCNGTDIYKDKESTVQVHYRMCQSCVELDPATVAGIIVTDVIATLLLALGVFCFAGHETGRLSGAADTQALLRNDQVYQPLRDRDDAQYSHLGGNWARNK
# T4 sequence (P09693 23-182 limits assumed, chain 2 of 4): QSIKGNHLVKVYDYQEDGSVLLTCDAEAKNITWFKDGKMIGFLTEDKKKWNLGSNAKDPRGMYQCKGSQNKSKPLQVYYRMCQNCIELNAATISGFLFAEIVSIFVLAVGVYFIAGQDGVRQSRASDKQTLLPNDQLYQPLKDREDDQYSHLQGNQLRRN
# T4 sequence (P07766 23-207 limits assumed, chain 3 of 4): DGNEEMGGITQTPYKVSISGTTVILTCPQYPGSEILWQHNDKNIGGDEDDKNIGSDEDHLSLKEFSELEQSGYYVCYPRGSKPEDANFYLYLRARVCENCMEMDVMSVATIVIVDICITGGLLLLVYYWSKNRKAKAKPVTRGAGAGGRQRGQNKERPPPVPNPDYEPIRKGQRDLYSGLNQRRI
# T4 sequence (P20963 22-164 limits assumed, chain 4 of 4): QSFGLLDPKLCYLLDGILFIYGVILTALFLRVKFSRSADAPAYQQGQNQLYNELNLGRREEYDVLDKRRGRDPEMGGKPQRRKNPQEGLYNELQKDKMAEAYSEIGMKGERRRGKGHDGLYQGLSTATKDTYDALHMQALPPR
binder,measurement,setting,value
B1,EC50,[1],91 nM
same,binding result,[2],no binding (tested: 1e-6 M)
same,EC50,[3],160 nM
same,Kd,[4],210 nM
B2,EC50,[1],91 nM
same,binding result,[2],no binding (tested: 1e-6 M)
same,EC50,[3],77 nM
same,Kd,[4],150 nM
B3,"EC50 (M), redirected cynomolgus T cell mediated killing of MOLM-13 cells, flow cytometry, E:T 10:1",human CD123 [5],2.9e-11 M
same,"EC50 (M), redirected human T cell mediated killing of MOLM-13 cells, flow cytometry, E:T 10:1",human CD123 [5],2e-11 M
same,"% lysis, redirected cynomolgus T cell mediated killing of KG1a cells, flow cytometry, E:T 10:1",human CD123 [6],34%
same,"% lysis, redirected human T cell mediated killing of KG1a cells, flow cytometry, E:T 10:1",human CD123 [6],67%
same,"EC50 (M), redirected cynomolgus T cell mediated killing of KG1a cells, flow cytometry, E:T 10:1",human CD123 [6],1.7e-11 M
same,"EC50 (M), redirected human T cell mediated killing of KG1a cells, flow cytometry, E:T 10:1",human CD123 [6],8.1e-11 M
same,"EC50 (M), human IFN-γ secretion during redirected human T cell mediated killing of CD123 positive MOLM-13 cells (ELISA)",human CD123 [7],3.4e-10 M
same,"EC50 (M), human IL-6 secretion during redirected human T cell mediated killing of CD123 positive MOLM-13 cells (ELISA)",human CD123 [8],2.3e-11 M
B4,"% lysis, redirected human T cell mediated killing of MOLM-13 cells, flow cytometry, E:T 10:1",[9],29%
same,"EC50 (M), redirected human T cell mediated killing of MOLM-13 cells, flow cytometry, E:T 10:1",[9],2e-11 M
same,"% lysis, redirected human T cell mediated killing of KG1a cells, flow cytometry, E:T 10:1",[10],27%
same,"EC50 (M), redirected human T cell mediated killing of KG1a cells, flow cytometry, E:T 10:1",[10],1.1e-10 M
same,"% lysis, redirected cyno T cell mediated killing of MOLM-13 cells, flow cytometry, E:T 10:1",[11],55%
same,"EC50 (M), redirected cyno T cell mediated killing of MOLM-13 cells, flow cytometry, E:T 10:1",[11],1.1e-11 M
same,"% lysis, redirected cyno T cell mediated killing of KG1a cells, flow cytometry",[12],42%
same,"EC50 (M), redirected cyno T cell mediated killing of KG1a cells, flow cytometry",[12],2.6e-11 M
same,"EC50 (M) of CD25 upregulation on cynomolgus T cells during redirected killing of MOLM-13 cells, 72 h",[13],6e-11 M
same,"IC50 (M), redirected human T cell mediated killing of human CD123 transfected CHO Flp-In cells, xCELLigence, E:T 15:1, 50 h",[14],2.4e-10 M
same,"IC50 (M), redirected cynomolgus T cell mediated killing of cynomolgus CD123 transfected HEK Flp-In cells, xCELLigence, E:T 15:1, 80 h",[15],1.1e-11 M
same,"EC50 (M), IFN-γ secretion by cynomolgus T cells during killing of CD123 transfected adherent target cells",[16],2.3e-09 M
same,"EC50 (M), IFN-γ secretion by human T cells during killing of CD123 transfected adherent target cells",[16],1e-09 M
same,"EC50 (M), human IL-6 secretion during human T cell mediated killing of CD123 transfected adherent target cells",[17],4.8e-10 M
same,"EC50 (M), redirected cynomolgus T cell mediated killing of CD123 positive KG1a cells, flow cytometry, E:T 10:1",[18],1.7e-11 M
same,"EC50 (M), redirected human T cell mediated killing of CD123 positive KG1a cells, flow cytometry, E:T 10:1",[18],8.1e-11 M
same,"EC50 (M), redirected cynomolgus T cell mediated killing of CD123 positive MOLM-13 cells, flow cytometry, Experiment 1",[19],6e-11 M
same,"EC50 (M), redirected cynomolgus T cell mediated killing of CD123 positive MOLM-13 cells, flow cytometry, Experiment 2",[19],3.1e-11 M
same,"EC50 (M), redirected human T cell mediated killing of CD123 positive MOLM-13 cells, flow cytometry, Experiment 2",[19],3e-11 M
same,"EC50 (M), human IFN-γ secretion during human T cell mediated killing of KG1a cells",[20],3.2e-11 M
same,"EC50 (M), human IFN-γ secretion during human T cell mediated killing of MOLM-13 cells",[20],3.4e-10 M
same,"EC50 (M), human IL-6 secretion during human T cell mediated killing of MOLM-13 cells",[21],2.3e-11 M
same,IC50,[22],640 nM
same,IC50,[23],3.7 nM
same,IC50,[24],3.3 nM
same,IC50,[25],11 nM
